Experimental data: patent US20190352354A1

Biological target: commercial Trail (TNF-related apoptosis-inducing ligand, TRAIL) (UniProt P50591)
Experiment: cell-based or functional assay

Sequence of commercial Trail (TNF-related apoptosis-inducing ligand, TRAIL) (P50591 114-281 limits assumed): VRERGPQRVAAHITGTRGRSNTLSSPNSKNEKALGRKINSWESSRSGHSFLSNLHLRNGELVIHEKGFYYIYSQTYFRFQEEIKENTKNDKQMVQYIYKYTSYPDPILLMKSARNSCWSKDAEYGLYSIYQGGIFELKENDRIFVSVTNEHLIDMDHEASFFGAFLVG
Sequence of commercial DR5-Fc fusion protein (R&D Systems) (O14763 52-182): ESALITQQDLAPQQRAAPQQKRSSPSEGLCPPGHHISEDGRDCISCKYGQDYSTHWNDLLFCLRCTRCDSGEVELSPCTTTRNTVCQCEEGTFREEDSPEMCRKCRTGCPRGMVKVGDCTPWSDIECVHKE

Question: How did the EC50 of blocking TRAIL-induced apoptosis of HepG2 cells turn out when “commercial DR5-Fc fusion protein (R&D Systems) (from UniProt O14763 52-182)” was run?
Answer: 0.0276 µg/mL

Question: And the EC50 of blocking Trail (at EC90) killing of Jurkat cells, MTS/PMS A490-A630?
Answer: 0.0718 µg/mL
